Key:
Test in all cases: ITC
[1] = target: HSL3 ectodomain pre-incubated with CTNIP4^C58A(46–63) (Arabidopsis, C58A (stands in the printed letters))
[2] = target: HSL3–CTNIP4 complex (HSL3 ectodomain pre-incubated with CTNIP4(46–70)_(Cys–Cys)) (Arabidopsis, disulfide bond linking Cys58 and Cys68)
[3] = target: HSL3 ectodomain pre-incubated with CTNIP4^C58A.C68A(46–70)_(linear) (Arabidopsis, C58A (stands in the printed letters) | C68A (stands in the printed letters))
[4] = target: HSL3 ectodomain pre-incubated with CTNIP4^N60F(46–70)_(Cys–Cys) (Arabidopsis, N60F (stands in the printed letters), disulfide bond linking Cys58 and Cys68)
[5] = target: HSL3 ectodomain pre-incubated with CTNIP4^N60A(46–70)_(Cys–Cys) (Arabidopsis, N60A (stands in the printed letters), disulfide bond linking Cys58 and Cys68)

Row | Binder | Kd [1] [nM] | Kd [2] [nM] | Kd [3] [nM] | Kd [4] [nM] | Kd [5] [nM]
1 | SERK1 ectodomain (residues 24–213) (domain or fragment) ASANLEGDALHTLRVTLVDPNNVLQSWDPTLVNPCTWFHVTCNNENSVIRVDLGNAELSGHLVPELGVLKNLQYLELYSNNITGPIPSNLGNLTNLVSLDLYLNSFSGPIPESLGKLSKLRFLRLNNNSLTGSIPMSLTNITTLQVLDLSNNRLSGSVPDNGSFSLFTPISFANNLDLCGPVTSHPCPGS | 8200 | 458 | 2540 |  | 
2 | SERK3 (protein) NAEGDALSALKNSLADPNKVLQSWDATLVTPCTWFHVTCNSDNSVTRVDLGNANLSGQLVMQLGQLPNLQYLELYSNNITGTIPEQLGNLTELVSLDLYLNNLSGPIPSTLGRLKKLRFLRLNNNSLSGEIPRSLTAVLTLQVLDLSNNPLTGDIPVNGSFSLFTPISFANTKLTPLPASPPPPISPTPPSPAGS |  | 269 |  | 15100 | 2050

From article PMC13585564 (2026)
